Numbering of substitutions follows the chain as printed. In names and notes the source's numbering stands.
T1: pyridox(am)ine 5′-phosphate oxidase (PNPO) (Homo sapiens, UniProt Q9NVS9)
T1 construct: homodimer with FMN
T1 sequence (Q9NVS9 1-261): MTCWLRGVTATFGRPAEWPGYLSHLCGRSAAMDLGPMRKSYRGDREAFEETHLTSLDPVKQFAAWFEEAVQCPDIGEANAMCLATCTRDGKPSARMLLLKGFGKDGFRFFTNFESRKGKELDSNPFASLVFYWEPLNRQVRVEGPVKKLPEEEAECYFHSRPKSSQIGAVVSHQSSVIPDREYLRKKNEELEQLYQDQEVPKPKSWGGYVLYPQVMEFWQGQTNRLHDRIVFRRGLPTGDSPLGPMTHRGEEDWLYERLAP

B1: pyridox(am)ine 5′-phosphate oxidase, wild type (enzyme, human)
chain: T1 sequence (Q9NVS9 1-261)
notes: human pyridox(am)ine 5′-phosphate oxidase (PNPO), recombinant; The vector pET28-PNPO is named only for the variants; also called PNPO; WT; source: recombinant, purified by the protocol of [4]
B2: pyridox(am)ine 5′-phosphate oxidase R161C variant (enzyme, human)
chain: T1 sequence (Q9NVS9 1-261) with R161C
notes: human PNPO, patient variant R161C made by site-directed mutagenesis in pET28-PNPO; also called PNPO R161C; source: E. coli Rosetta (DE3), purified as described in [4]
B3: pyridox(am)ine 5′-phosphate oxidase D33V variant (enzyme, human)
chain: T1 sequence (Q9NVS9 1-261) with D33V
notes: human PNPO, patient variant D33V made by site-directed mutagenesis in pET28-PNPO; also called PNPO D33V; source: E. coli Rosetta (DE3), purified as described in [4]
B4: pyridox(am)ine 5′-phosphate oxidase E50K variant (enzyme, human)
chain: T1 sequence (Q9NVS9 1-261) with E50K
notes: human PNPO, natural variant E50K made by site-directed mutagenesis in pET28-PNPO; also called PNPO E50K; source: E. coli Rosetta (DE3), purified as described in [4]
B5: pyridox(am)ine 5′-phosphate oxidase P213S variant (enzyme, human)
chain: T1 sequence (Q9NVS9 1-261) with P213S
notes: human PNPO, patient variant P213S made by site-directed mutagenesis in pET28-PNPO; also called PNPO P213S; source: E. coli Rosetta (DE3), purified as described in [4]

Key:
[1] = target: T1, pyridox(am)ine 5′-phosphate oxidase (PNPO); assay: differential scanning fluorimetry; format: binding; conditions: equimolar FMN added to 2 µM purified enzyme (already FMN-bound); range given for all PNPO forms
Excerpt: differential scanning fluorimetry on pyridox(am)ine 5′-phosphate oxidase (PNPO) | equimolar amount of FMN stabilizes all the PNPO forms by increasing the Tm

[2] = target: the molecule itself; assay: SEC; gel filtration on a Superdex 200 10/300 GL column, as described previously [20]; elution profiles compared with the wild type

Row | Molecule | increase in Tm [1] | stoichiometry N [2]
1 | Cc1cc2nc3c(=O)[nH]c(=O)nc-3n(C[C@H](O)[C@H](O)[C@H](O)COP(=O)(O)O)c2cc1C [FMN] | 2–3 °C | –
2 | B1 | – | 2
3 | B2 | – | 2
4 | B3 | – | 2
5 | B4 | – | 2
6 | B5 | – | 2

Source: paper PMC8584306, “Characterization of Novel Pathogenic Variants Causing Pyridox(am)ine 5′-Phosphate Oxidase-Dependent Epilepsy” (International Journal of Molecular Sciences, 2021)
